Laboratory results taken from patent publication US20200270588A1, “GLUCOSYL TRANSFERASE POLYPEPTIDES AND METHODS OF USE” (Syngenta Participations AG, priority 2017, published 2020).

Experiment: UDP luminescence plate assay of E. coli extracts, mutants within SEQ ID No: 17, 2 mM metribuzin
Format: biochemical, Zea mays
Conditions: for metribuzin signal relative to the SEQ ID No:17 control (first parentheses) / ratio of metribuzin to DMSO signal (second parentheses) / SIGNAL: metribuzin signal of mutant divided by the signal of the SEQ ID No. 17 control / luminescence signal observed with 2 mM metribuzin: 2 mM metribuzin; for metribuzin signal relative to the SEQ ID No:17 control (first parentheses) / ratio of metribuzin to DMSO signal (second parentheses): additional mutation in SEQ ID No: 17; for SIGNAL: metribuzin signal of mutant divided by the signal of the SEQ ID No. 17 control: relative to SEQ ID No: 17 control; for luminescence signal in the DMSO control / luminescence signal observed with 2 mM metribuzin: additional mutations within SEQ ID No: 17; for luminescence signal in the DMSO control: DMSO in place of metribuzin; for luminescence signal observed with 2 mM metribuzin: control = SEQ ID No: 17
Procedure: Activities observed with metribuzin were generally lower in magnitude than seen with herbicide V in the previous examples. For example, in one plate assay run with 2 mM metribuzin using 5 ul of diluted extract of plate-grown BL21DE3 cells expressing w/t bx9 and assayed for 40 minutes (as described in Example 2) the UDP-Glo luminescence signal was ˜3.4 E6 as compared with ˜2.3E6 in the DMSO control and ˜1.7E6 in the H24A null mutant control. […] It was therefore important to assess potential improvements in the metribuzin activity of the various mutants relative to the wild type bx9 enzyme based not only on the H24A null activity control but also based upon controls with DMSO in place of metribuzin acceptor substrate. In some plate assays (using more dilute extracts) the metribuzin signals from the w/t enzyme was the same or barely greater than the DMSO control. Additionally, some mutations gave an increase in the ‘background’ UDP-glucose hydrolysis activity with just DMSO present that was the same or similar to the magnitude of the increase in signal seen with metribuzin. In these instances it is therefore uncertain from just this UDP-Glo assay method whether the specific metribuzin signal (glucosylation of metribuzin) is improved or not i.e. the signal seen with metribuzin may or may not all or to a large part be attributable to increased background hydrolysis). […] Thus the ratio of the metribuzin to DMSO signal as well as the increase in signal relative to the w/t bx9 is used to help distinguish those mutations most likely to offer the highest activity to metribuzin. A follow up assay monitored by, for example, LC MS is one method to distinguish these cases more quantitatively. The tables below summarise the results from two different sets of luminescence plate assays to detect single mutations giving improvements in the magnitude of the signal with metribuzin relative to w/t bx9 and/or the apparent specificity for metribuzin as measured by the deviation of the ratio of metribuzin to DMSO control activity from the bx9 w/t value of around unity.
A further separate screen was carried out to explore a library of additional mutations at various positions within the context of SEQ ID No: 17 for improved metribuzin activity. These were assayed, assessed and scored as above. […] These were S75K (2.5)(1.25), A236G (4.0)(1.15), A433V (3.3)(9.0) and R449C (1.8)(1.2).
A yet further and more comprehensive screen was carried out to explore saturation mutagenesis at all remaining amino acid positions within the context of SEQ ID No:17 for improved metribuzin activity. Again these were assayed, assessed and scored as above and the results of (out of the thousands screened) of the subset that were of interest are summarized in Table 16.

Molecule | metribuzin signal relative to the SEQ ID No:17 control (first parentheses) | ratio of metribuzin to DMSO signal (second parentheses) | SIGNAL: metribuzin signal of mutant divided by the signal of the SEQ ID No. 17 control | luminescence signal in the DMSO control | luminescence signal observed with 2 mM metribuzin
K429S: additional mutation in SEQ ID No: 17 (protein, Mutated Zea mays Bx9 protein sequence) MASSRTGAGAGGRVVVFPFPFQGHFNPVMRLARALHARGLAITVFHSGALDPADYPADYRFVPVTVEADPKLLASEDIAAIVTTLNASCDAPFRARLSALLAAEGRDSVRCVFTDVVWNAVLTASSDLGVPALGMMTASAASLRDYMAYRTLIDKGYLPVKEERKEDPVPELPPYLVKDLLRVDTSDLEEFAELLARTVTAARRASGLIFNTFPLIETDTLAEIHKALSVPVFAVAPLNKLVPTATASLHGVVQADRGCLQWLDTQQPGSVLYVSFGSFAAMDPHEFVELAWGLADSKRPFVWVVRPNLIRGFESGALPDGVEDEVRGRGIVVKWAPQEEVLAHPAVGGFLTHNGWNSTVEAISEGVPMVCCPRHGDQFGNMRYVCDVWKVGTELVGEQLERGQVKAAIDRLFGTKEGEEIKERMKEFSIAAAKGIGIGVDVDETASPRTDLTDLVDLIKSF | 2.4 | 1.30 | 2.38 | 3.34E+06 | 4.34E+06
F213W: additional mutation in SEQ ID No: 17 (protein, Mutated Zea mays Bx9 protein sequence) MASSRTGAGAGGRVVVFPFPFQGHFNPVMRLARALHARGLAITVFHSGALDPADYPADYRFVPVTVEADPKLLASEDIAAIVTTLNASCDAPFRARLSALLAAEGRDSVRCVFTDVVWNAVLTASSDLGVPALGMMTASAASLRDYMAYRTLIDKGYLPVKEERKEDPVPELPPYLVKDLLRVDTSDLEEFAELLARTVTAARRASGLIFNTWPLIETDTLAEIHKALSVPVFAVAPLNKLVPTATASLHGVVQADRGCLQWLDTQQPGSVLYVSFGSFAAMDPHEFVELAWGLADSKRPFVWVVRPNLIRGFESGALPDGVEDEVRGRGIVVKWAPQEEVLAHPAVGGFLTHNGWNSTVEAISEGVPMVCCPRHGDQFGNMRYVCDVWKVGTELVGEQLERGQVKAAIDRLFGTKEGEEIKERMKEFKIAAAKGIGIGVDVDETASPRTDLTDLVDLIKSF | 4.7 | 1.24 | 4.75 | 6.96E+06 | 8.66E+06
P214D: additional mutation in SEQ ID No: 17 (protein, Mutated Zea mays Bx9 protein sequence) MASSRTGAGAGGRVVVFPFPFQGHFNPVMRLARALHARGLAITVFHSGALDPADYPADYRFVPVTVEADPKLLASEDIAAIVTTLNASCDAPFRARLSALLAAEGRDSVRCVFTDVVWNAVLTASSDLGVPALGMMTASAASLRDYMAYRTLIDKGYLPVKEERKEDPVPELPPYLVKDLLRVDTSDLEEFAELLARTVTAARRASGLIFNTFDLIETDTLAEIHKALSVPVFAVAPLNKLVPTATASLHGVVQADRGCLQWLDTQQPGSVLYVSFGSFAAMDPHEFVELAWGLADSKRPFVWVVRPNLIRGFESGALPDGVEDEVRGRGIVVKWAPQEEVLAHPAVGGFLTHNGWNSTVEAISEGVPMVCCPRHGDQFGNMRYVCDVWKVGTELVGEQLERGQVKAAIDRLFGTKEGEEIKERMKEFKIAAAKGIGIGVDVDETASPRTDLTDLVDLIKSF | 3.7 | 1.34 | 3.66 | 4.99E+06 | 6.67E+06
I430P: additional mutation in SEQ ID No: 17 (protein, Mutated Zea mays Bx9 protein sequence) MASSRTGAGAGGRVVVFPFPFQGHFNPVMRLARALHARGLAITVFHSGALDPADYPADYRFVPVTVEADPKLLASEDIAAIVTTLNASCDAPFRARLSALLAAEGRDSVRCVFTDVVWNAVLTASSDLGVPALGMMTASAASLRDYMAYRTLIDKGYLPVKEERKEDPVPELPPYLVKDLLRVDTSDLEEFAELLARTVTAARRASGLIFNTFPLIETDTLAEIHKALSVPVFAVAPLNKLVPTATASLHGVVQADRGCLQWLDTQQPGSVLYVSFGSFAAMDPHEFVELAWGLADSKRPFVWVVRPNLIRGFESGALPDGVEDEVRGRGIVVKWAPQEEVLAHPAVGGFLTHNGWNSTVEAISEGVPMVCCPRHGDQFGNMRYVCDVWKVGTELVGEQLERGQVKAAIDRLFGTKEGEEIKERMKEFKPAAAKGIGIGVDVDETASPRTDLTDLVDLIKSF | 2.8 | 1.34 | 2.82 | 3.83E+06 | 5.15E+06
A431P: additional mutation in SEQ ID No: 17 (protein, Mutated Zea mays Bx9 protein sequence) MASSRTGAGAGGRVVVFPFPFQGHFNPVMRLARALHARGLAITVFHSGALDPADYPADYRFVPVTVEADPKLLASEDIAAIVTTLNASCDAPFRARLSALLAAEGRDSVRCVFTDVVWNAVLTASSDLGVPALGMMTASAASLRDYMAYRTLIDKGYLPVKEERKEDPVPELPPYLVKDLLRVDTSDLEEFAELLARTVTAARRASGLIFNTFPLIETDTLAEIHKALSVPVFAVAPLNKLVPTATASLHGVVQADRGCLQWLDTQQPGSVLYVSFGSFAAMDPHEFVELAWGLADSKRPFVWVVRPNLIRGFESGALPDGVEDEVRGRGIVVKWAPQEEVLAHPAVGGFLTHNGWNSTVEAISEGVPMVCCPRHGDQFGNMRYVCDVWKVGTELVGEQLERGQVKAAIDRLFGTKEGEEIKERMKEFKIPAAKGIGIGVDVDETASPRTDLTDLVDLIKSF | 2.8 | 1.32 | 2.81 | 3.87E+06 | 5.12E+06
L215D: additional mutation in SEQ ID No: 17 (protein, Mutated Zea mays Bx9 protein sequence) MASSRTGAGAGGRVVVFPFPFQGHFNPVMRLARALHARGLAITVFHSGALDPADYPADYRFVPVTVEADPKLLASEDIAAIVTTLNASCDAPFRARLSALLAAEGRDSVRCVFTDVVWNAVLTASSDLGVPALGMMTASAASLRDYMAYRTLIDKGYLPVKEERKEDPVPELPPYLVKDLLRVDTSDLEEFAELLARTVTAARRASGLIFNTFPDIETDTLAEIHKALSVPVFAVAPLNKLVPTATASLHGVVQADRGCLQWLDTQQPGSVLYVSFGSFAAMDPHEFVELAWGLADSKRPFVWVVRPNLIRGFESGALPDGVEDEVRGRGIVVKWAPQEEVLAHPAVGGFLTHNGWNSTVEAISEGVPMVCCPRHGDQFGNMRYVCDVWKVGTELVGEQLERGQVKAAIDRLFGTKEGEEIKERMKEFKIAAAKGIGIGVDVDETASPRTDLTDLVDLIKSF | 3.1 | 1.34 | 3.14 | 4.26E+06 | 5.72E+06
